# Experiments:
# Test in all cases: cross-linking
# [1] = molecular target: CA A14C/E45C in isolated HIV-1 cores (R9.A14C/E45C) (HIV-1)
# [2] = molecular target: CA P207C/T216C in isolated HIV-1 cores (R9.P207C/T216C) (HIV-1)
# [3] = molecular target: HIV-1 CA P207C/T216C, assembled into tubes (HIV-1)
# [4] = molecular target: HIV-1 CA A14C/E45C, assembled into tubes (HIV-1)
substance,measurement,setting,value
CA A14C/E45C in isolated HIV-1 cores (R9.A14C/E45C) (natural protein),stoichiometry N,[1],6
CA P207C/T216C in isolated HIV-1 cores (R9.P207C/T216C) (natural protein),stoichiometry N,[2],3
"HIV-1 CA P207C/T216C, assembled into tubes (natural protein)",stoichiometry N,[3],3
"HIV-1 CA A14C/E45C, assembled into tubes (natural protein)",stoichiometry N,[4],6

# From article PMC4506781
